In article PMC9908077:

Columns and labels:
Assay in all cases: cross-linking; 1 mM BMH (cysteine-specific) added to living transfected HEK293T cells in PBS/5 mM EDTA, 1 hr at room temperature in the dark, stopped with DTT; lysates on 3-8% Tris-Acetate gels, western blot with anti-NC antibody
[1] = biological target: CANC (N-terminally 3xHA-tagged CANC Gag fragment with the C-terminal SP2-p6 extension, from pCANC) (HIV-1 NL4-3)
[2] = biological target: ccHex2-SP1-NC (HIV-1 NL4-3)
[3] = biological target: GCN4pII-SP1-NC (HIV-1 NL4-3)
[4] = biological target: GCN4pAA-SP1-NC (HIV-1 NL4-3)

Q: “CANC (N-terminally 3xHA-tagged CANC Gag fragment with the C-terminal SP2-p6 extension, from pCANC) (domain or fragment)” was tested. Which stoichiometry N [1] did it give?
A: 8 to 10

Q: Which stoichiometry N [2] does the source give for ccHex2-SP1-NC here?
A: < 6

Q: How did the stoichiometry N [3] turn out when GCN4pII-SP1-NC was run?
A: < 6

Q: GCN4pAA-SP1-NC was tested. Which stoichiometry N [4] did it give?
A: < 6
